# According to PMC3216493 (Scientific Reports, 2011):
# Biological target: the molecule itself
# Test: native gel or EMSA
row,Protein,binding result
1,SplitCore183 (split subunit of coreN plus coreC183) (complex) chain 1: MDIDPYKEFGATVELLSFLPSDFFPSVRDLLDTASALYREALESPEHCSPHHTALRQAILCWGELMTLATWVGVNLEDP chain 2: MASRDLVVSYVNTNMGLKFRQLLWFHISCLTFGRETVIEYLVSFGVWIRTPPAYRPPNAPILSTLPETTVVRRRGRSPRRRTPSPRRRRSQSPRRRRSQSRESQC,binds
2,SplitCore149 (split subunit of coreN plus coreC149) (complex) chain 1: MDIDPYKEFGATVELLSFLPSDFFPSVRDLLDTASALYREALESPEHCSPHHTALRQAILCWGELMTLATWVGVNLEDP chain 2: MASRDLVVSYVNTNMGLKFRQLLWFHISCLTFGRETVIEYLVSFGVWIRTPPAYRPPNAPILSTLPETTVV,binds
3,"HBc149H6 (contiguous truncated HBV core protein, aa 1-149, with C terminal His6) (domain or fragment) MDIDPYKEFGATVELLSFLPSDFFPSVRDLLDTASALYREALESPEHCSPHHTALRQAILCWGELMTLATWVGVNLEDPASRDLVVSYVNTNMGLKFRQLLWFHISCLTFGRETVIEYLVSFGVWIRTPPAYRPPNAPILSTLPETTVV",binds
